Test: soluble fraction after stress (log2 fold change); higher = more stays soluble; pooled small domains, quantitative proteomics
Conditions: stress: 50 degC
Outline: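 Each library was heated to 50°C as a stress step. The libraries, made up of small protein domains, were pooled and analysed at high throughput by quantitative proteomics. The reported value is the base-two logarithm of the fold change in each protein's soluble amount after stress, taken as a measure of aggregation propensity. The higher the value, the more protein stays in solution.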

Point of comparison: “HMNSIDIENELVKIIEKNGQPMSFDDLVFKLDSLYSTRYKFAKGYIRTIILNSNRIASIGKTSTYSLYKWN”, “soluble fraction (log2)” value -2.25. Against it:
- HMQLVGSSAAVLIPAPAGGLGKIRLEFRGQTIDLIAKATDGGALIEGGAVTIVDVRDGQADVSV — higher, -0.552
- HMLLNTSQLKELYNRYDKKNSSLISIPFSAISDEPLKFYKWYAALFQIELNVKAFADVDSKQIIIYKGTK — lower, -2.51
- HMYEVDGLGIRIAQLRKKQDLTQEAFARTLGVSPQAVSKWETGIGYPDITLLPQIAKELGVSIDQLFGRN — higher, 0.065
- HMNNLGSKIKELRIAENLTQEKLAEELNVSFQSISRWENGISTPDISLIPAIARFFGVSTDYLFGLQD — higher, -0.384
- HMQRLSRREIEVLHWIAEGKSDWQIGQILSISAKTVNYHTENLKRKFGVATRMQAVVSAIKQGAFVPGE — lower, -4.43
- HMNNTVLSSVKSINMFLDANGGDAGQAFRIYNNTNPDSNPTESTYIFKVAEDGNTFVKGYLNLNGTTL — higher, 0.014
- HMIHIGAQEALGEFQDEEGNLTASKKEVVAALVKKSKEVSFPTSYEYEVAARMAADEYNDAGQRMA — higher, -0.0641
- HMTIRLKELRKQKGNTQAEVAKILGTNQSQYGKYENERTQLSLDNAKILSDYFGVSVPYLLGLDDNP — higher, -0.0854
- HMTAGYFTRGSHQDEVLRIQGTPSGVNKYSDHEVWNYGLSSVDISLRDRRVTEWNNISGNLKV — higher, -0.152
- HMSDLGEIEKIVDEVLAENITKVQEYKDGKKGLMGMFMGQIMKKSGGKADPKIANQLLTEKL — higher, 0.114
- HMTVVPNIVNQPEAAGTNLLISSNLKPGNRAVQYSDTVKAGDIISQSPEPGAQATLGGKVDYVISQGPAPT — higher, 0.165
- HMEKVTAPMPGVINSIVKNVGDTVKRGDVVLILEAMKMENEIVAPKEGKIASINVAKGASVNAGDVLFSI — higher, 0.294
- HMYAVQKGDTLKKIADQFGISVDTIKWANDMKGDALSIDQELKIP — higher, 0.057
- HMSETTSRVLQLLGLLQARRVWTGQELADRLGVTGRSVRRDIERLRDLGYPVHASKGRDGGYQLGA — higher, -1.01
- HMETLSKVGSTGSEVRQIQTKLKNWGYFSDKVDGIYGEKTRAAVVWFQKKNGLTADGIAGPATLKAMGIYT — higher, -0.171
- HMSTQYKTGHYKTTDALNLRASYSTSSNVLLTIPKGKTIVVTRVHNNEWGQVEYNGKTGWIYLEYTAYTES — higher, 0.0697
- HMNAQLTTIPDLDGMNMRAATAMLSSLGLEVKRIGSGTVFAQFPKAGAAMRPGSMVTIRGKAKSL — higher, -0.355
- HMSVKIELNENEQAIFTAVQKVNEAVLPELRAQFSDMSNKAWDNSVKMLTKNNLLKVSKEGEILYIRM — higher, -0.567
- HMEPALYRLFMAHPELNASAVARRLGIAQSLLAQYISGSKKPSPERERMILTEIHKIGEELATAS — higher, -0.65
- HMDASVTIEQVERMVQANVSDDVIISQLQGRGAAQNLSTDDIINLTQKGISAEVIKAYQSAG — higher, 0.0658
- HMYEGLILINKYDSLVSAKLETNKIKSLGLFFEDMEEKIAVFSGPFKNNDINLKLDFLIRNGYLDAKIY — lower, -4.51
- HMLSRTYDSSGPDVKIRGTAQTVADKYMSLARDAQSSGDRVMAENYLQHAEHYNRIIAAAQAQ — higher, 0.254
- HMAEEGEQAASNTAAQAEDRAAELAAAGEKGKQITKTLVAEFGIPKNEAYRLALDAVAAVKAER — higher, -0.105
- HMGIMSEITHRVLRLLGLLESRSTWTGSDLAERLGVTQRTIRRDVIRLRELGYQVDSVQGLDGGYRMS — lower, -2.48
- HMTTLEGIEKYLGSGMIRGIGPAYAGRLTKVFGEAVFDVIEQSPERLREVEGIGPKRVSRIVSGWAEQ — higher, -0.264
- HMNKLIIDAAEDKIFFMIMNNDISYNISHENTKINFEKLIILINDFLSSKKLKINDITGLYV — higher, 0.067
- HMRQQLAEILQKAVDNLPEAQRLVWLLRDKSDMTFKEIAEDLQLTEANVRVLLHRARLKLLAVINQYEE — higher, -1.38
- HMGNKWALLVVFILNENGSTRFNQLARQIPDISTKVLSNTLQILEADGLVKRTVFPEVPIRVEYELTATGK — lower, -3.64
- HMSYGDLTGRTVVITGASKGIGARASRVLAQAGASVVGLARSVDELTALKYDLENDGLSFDFG — higher, ≥ 0.62
- HMKQFVVQYYGIDGEVINSVYKNGMSDLTSYEPEKIDGKNFKGWSLSEDSKKVIDENYRINSDVNLYAVYT — higher, 0.0253
- HMIIVMASSKKEDVAHVVHKIEELGYKAHVIVGVERTVVAAVGDERGKERLISLEALPHVEKVFPILK — higher, -0.055
- HMRLPNGYGGVTKLSGRRRKPYMVRKTIGWHIDEKTDKKVQDYVVIGYAATKSEALQMLADYNNNPFDV — lower, -3.2
- HMSNNILEISSNKKNMKIQENKNLVESYYSKTENLYSFKLVFKNKRDLDQFLKEVYEDDSTINYKTSS — higher, -0.412
- HMEDDPIYEQVMIFLLDKQITSAPELERRFKITHQRAIELLAQMEKTGIVSTMGHAGKRDVLT — higher, -0.827
- HMTEGDRLARRILRLVRNKPNGYPEVELMKATVLDWNHFQRSISSLEMAGILERRDPGDGTPPVWVEKR — higher, -0.688
- HMGKLQFREKLNGILELGKEKHRVLTMEDVEKYFEEDALSEEQMELVYDYLLSQKIAVTGYVKK — higher, -0.191
- HMQVSDAAQLAEVVKTVLAENPAAVGDYRKGKKAAIGFLLGQVMRHMRGTANPAVARQLLEQALEDE — higher, 0.0337
- HMNGADPYEQLGVTRDASDDELKAAHRKLSRENHPDTLMAKGMPPEFIEQANDKMARINAAWDQIRKERGI — higher, 0.26
- HMEEDPIIIAQRFLNIFRQLHIFSEEKKESFNKMLLEQPAEIRGALRSLPGGGLLQDYIDDLESKA — higher, -0.151
- HMANLNFDMSQIVASRYQEKAAELGVTAPSLARTDYNTQEQATYEFVAREIIADYYDDRVAPFNDLIPE — higher, -0.223
- HMGQTYTITINPTPADAKVIIDGVATNSVEAIDGRTLIWSVSKPGYLTKSGNYTVTGKNETLNIVLKEDPD — higher, 0.087
- HMTDRINIGDVVTIISKDREDSQIVYMRYHKGKLSILGELILNKTKNDTVDFKGRTYDIATIEKS — higher, -1.83
- HMPISQGATVKHNANMRKGASTKYKVTGVLQEGEEVKILSQSNGWYKIQNSDNEKGWTYNTHINASDK — higher, 0.0951
- HMSHGFFTLQSDDLNLLRTVLEGHSSIGDIKIEGIQLVAYLKEPLNGAELNKILFEKGINLSYLVHRK — within 0.2 log units, -2.15
- HMEVSTDADFEAVGIRAELIPILQKLGFTTVAQLKEVKATKLFNDIPGMRKKLKLDAVQNPTLQEIEGWLK — higher, -0.0529
- HMEISAIIGNNLQQLRKEQGLSLDQLALKTGVSKAVLSQLENGKANPTINTIWKIATALHVTYSALLEPP — higher, -0.391
- HMEKDKGTILKEARIKKGLTQEQLANNINYTRQYISKWENNISLPKDIQTLKKISNLLSIPLKELLPEDYL — higher, -0.109
- HMNPAIYIRKNILNLTQEKLSEYLDVTQPTIHRWEESGVIPAKHQRQIREFASEKGIYWNDSWFFSIPDE — higher, -0.953
- HMLEDYFKEEEYTEVLKIPKEYIKGFQYYLIEDAEFVNALRAKNKTMTLFLAKKLASDYIEIIRREQ — higher, -0.208
- HMTPPPTNSREWMEWGISHGLDANLDRSGQVVFYTDDRVVADAAELSGADLERDNMGQFVIYTGAYDKG — higher, 0.0665
- HMERGEFQKLGRATLEQTLARAGKTLAEVSLKAMLETFAFAAEEDLYEALGRGRVSAAKVGETLFPALKGR — higher, -0.0985
- HMTLDVALSKEIKYMLKEEHYLPGDKLPSERKLAELFHVQRLTVRGALNLLLQDKTIISKPRSGYYVAPKR — lower, -3.1
- HMAIPEVDPAKQGVSATQLAALDALAHRNAGEGRVAGMVNVVIRNGEIVYYKATGPRHIDGGAPLKSTDLF — higher, -0.153
- HMEAKKVIAVHIIGEINKPGIVELEEGARVIDAIKKAGGTTEKADLAQINLAYILKDGQKIYIPNTEDN — higher, 0.0276
- HMRTAKEVFYKELKGYMQNGDELSVKKIYSLFPEINPKTVSWRLHELVQHGKIHRTGHGYYALTQ — higher, -1.07
- HMAGPTIVTNSQGVPNYHLVKRGDTVSQIAQRYGLNYRQIGAINNLDSKYTIYSGQWLKLWQG — higher, -0.702
- HMHDLTERQREILQTLASGKMALREILSILSQPPSLRTLRDELYHLKRIGLVDTMGYGRGATWFLTQ — higher, -0.103
- HMAGYDTYMVDRDAELLPWLLETLQRESRSKVKATLQGNGIKVNGKRVTQFNYPLKAGMKVSVSKSK — higher, -0.0376
- HMDDAVSHPDAGHIVTVTKVSADGTAEVMYRGASWRAKTADGSPLTAGSARIVRVDGAALVVEP — higher, 0.052
- HMKEVKPSDFFLSKLDEDHNLIEKFNALSSFKQKEFIEYIDSAKQEKTKHDRFEKIKPILLSNIGLNDKYR — higher, 0.075
- HMEKYNIIVDNEDNFRLDKIIALNMKDLSRTMIQEMINRGLVSVNGKITKASYKTKLNDQIEIMIED — higher, -0.28
- HMVSLTGEWRPSKDALDILITKGGINPNFIDDAVPEFILYWRDRGDVSNTWDSKFIQHVRRQWQFYTGI — lower, -2.93
- HMPGRLSRREVEVIELTARGLPAAEMAVRLGISANTIEFHRRRIMQKLGVANAAEMVRRATELGW — within 0.2 log units, -2.1
- HMNTISTLEITTKKDIRILDESELLKSKSSKNNIFNYLLASGDFNLLKDKLNEIDEFSDEIISYQLN — higher, -0.611
- HMIIDPQIRTLWTSQIIDILKSNPKRSIRSILELYPSNKESWVLIILQELIGEEKIIRDLDYLYFNK — within 0.2 log units, -2.22
- HMNGQFIELKNTTGTIIEARVLSFQNGKVKLQRNDGLIFVASISIFDSESIEVIKQKVAEISESKKS — higher, -0.224
- HMEELNFYPNPAYKYINLDYVGLKEIYTVLGKKLLETYDTRINISNLNSGIYLIKFKNQALRFVK — higher, -0.0334
- HMEQIGSIIKDIRKKNNLTQNEFASILGVTFQAVSKWENDKSIPDITILKDISNKFNVDLNYLISG — higher, -0.0472
- HMDLLIFSPSLGQHVRDLKRVIDRLHQHGIPVRWQKAKLLREEIEYIGWTWKSGGLIDPTNV — higher, -0.31
- HMSQNVQDVFLNHVRKSKNPVTVFLVNGVKLQGIITWFDNFSVLLRREGHTQLVYKHAISTVMPSGPIQLF — higher, 0.0729
- HMSQNTHTIPSREDILGIFRSVNAPLDPQSLGKTLQVHADSMDVLVRRLKAMERDGQLKSDASGVFSLAD — higher, 0.119
- HMEQMSLISKKKGERIDKFLGENLGDLSRSYIQKLLKDGLILVNGKKVKANYKLNEGDQIDVEVPDP — higher, 0.303
- HMSIMNEQIREILNQQVTKTSKIQQLLLLGLTRRQVADLVTNGNYGFVQNVYRNMLDAGIFTP — higher, -0.5
- HMLTLTNREKQVLVYIAKGHQVAQIAYELKLSGHTINGYIKTIYQKLHISSRAEAALLAQQYGL — lower, -3.56
- HMSDTMTVTNVKYAIYLRSTPSEASDANIIMEIPVGSKVTYLDTPNNTFYKISYGGTVGYSKQIYLTF — higher, -0.836

Reference: the domain aggregation screens of Martell et al. (2025)
